Laboratory results: publication PMC6437863, “Identification and functional characterization of three new terpene synthase genes involved in chemical defense and abiotic stresses in Santalum album” (BMC Plant Biology, 2019)

Columns and labels:
Experiment in all cases: malachite green phosphate release after HCl stop, Michaelis-Menten fit
Type in all cases: biochemical, Santalum album
Conditions in all cases: 10 mM Mg2+, 25 mM HEPES, 30°C, 10 min
[1] = substrate: CC(C)=CCC/C(C)=C/COP(=O)(O)OP(=O)(O)O
Description: (§1) malachite green phosphate release after HCl stop, Michaelis-Menten fit on SaTPS3

[2] = substrate: CC(C)=CCC/C(C)=C/CC/C(C)=C/CO[P@@](=O)(O)OP(=O)(O)O
Description: as §1

[3] = substrate: CC(C)=CCC/C(C)=C/COP(=O)(O)OP(=O)(O)O; remark: listed apart in the source
Description: (§2) malachite green phosphate release after HCl stop, Michaelis-Menten fit on SaTPS2

[4] = substrate: CC(C)=CCC/C(C)=C/CC/C(C)=C/CO[P@@](=O)(O)OP(=O)(O)O; remark: listed apart in the source
Description: as §2

B1: SaTPS3 (Santalum album) (protein)
chain: MESFVFLKSATSNANNSVKVDNRRSANYQSSVWDYNFLRLLGTTYTCCDTMEEEHVRIAEKLKEEVKSLIMGSMGPLANLEFIDAVQRLGLKYQFETEIKEALFAIYKDSNEEWWANDLHATALRFRLLRRNLLFVSQDVFERFKDKKTHDFSGELCEDVKGILSLYEACFLGWDGERVLDKARIFTTTHLNAMNRSTVSDGGSLDKKVKHALELPLHWRAPRVEARWFIDVYEQDPNMNLALLKLAKLDFNMVQSIHQKEVGELSRWWVRTGLDKLSFARNGLMQNYMYCCAVTFEPQFAHVREALTKIGSVLTATDDLYDVYGSLEELELFTSFIDRWDIKEIDELPRDIRLIFLAMYNLSNEIGFDILRDRDFNGVPYVAKMLGDVCSAYLKEARWYHGGYKPRMEEYLDNGLVSIGMLPLLAVAYMLTTDNLSKETVDHVAAAAPLVRYCSLLLRMIDDLGTSSDELRRGDTLKSVECYMNQAGASEEIAREHIEELVRNTWKKMNQCCFGDGQSSFADPFLSFTLNSVRGAHFFYQFGDGFGVTESWTKDTVLSVLFQPIPLDED
notes: full-length ORF, 6His-tagged, pET-28a, E. coli Rosetta 2 (DE3), Ni-NTA purified; no plastid transit peptide; SaTPS1 to 3 span 564 to 604 residues
- Km [1]: 14.38 ± 1.20 µM
- kcat [1]: 0.257 ± 0.008 s⁻¹
- kcat/Km [1]: 17900 M⁻¹ s⁻¹
- Km [2]: 16.29 ± 1.48 µM
- kcat [2]: 0.171 ± 0.006 s⁻¹
- kcat/Km [2]: 10500 M⁻¹ s⁻¹

B2: SaTPS2 (Santalum album) (protein)
chain: MDSATLKVLCDNDANVKIEKNPSGNRRSANYEPSIWNYDFLQSLDSCYNIVEEKHLKLAEKLKGEVKSIIKAPMEPLAKLELVDVVQRLGLKHLFETEIKEALFTVYKDGSDAWWLGHLYATSLRFRLLRQAGLFIPQDVFEIFKSATGEFDMKLRDNIEGLLSLYEASFLGWKGENILDEAKAFTTEYLKNAWENIPQKWLAIRVKHALDLPLHWRVPRFEARWFIDAYEREENINPTLLKLAKLDFNMVQSIHQRELGKLARWWVSTGLDKLSFARNNLMQSYMYGTAVTSDPQFKLARETIVKTGSLITIVDDVYDVFGSIDELELYTNFVDRWNCTEVDELPNTIKMIFLAMFNTANEIGFQIQTERGFNGIPALSKAWDDLCKSYIKEAKWYHGKHKPTLQEYLGNAVVSVGFPLLMTTGYVAIADSEGALDKIDRIPDLVRYACLLNRLVNDLATSSDELARGDTLKSIECYMNQTGASEEIAREHIKGLIEDTWKTLNECSFDDSQFGEPFVSFNLNSVRGSHFFYQHGDGYGVTNSWTKDDLMSILINPISVDDES
notes: as for B1
- Km [3]: 12.27 ± 1.32 µM
- kcat [3]: 0.189 ± 0.007 s⁻¹
- kcat/Km [3]: 15400 M⁻¹ s⁻¹
- Km [4]: 12.15 ± 1.32 µM
- kcat [4]: 0.2 ± 0.008 s⁻¹
- kcat/Km [4]: 16400 M⁻¹ s⁻¹
